In paper doi:10.1101/2024.11.27.625426 (bioRxiv, 2024):

B1: NCS.1.1 mAb (IgG) (antibody, V domains shown)
VH: QVQLQESGPRLVKPSETLSLTCSVSGESISSGGYYWTWIRQHPGKGLEWIGNIFDTGSTDYSPSLKTRLTISIDTSKNQFYLRLNSATAADTAVYYCARVGFSLETDRPYYLGLDVWGQGTTVTVSS
VL: DIVMTQSPLSLPVTPGEPASISCRSSQSLLHSNGYTYLDWYLQKPGQSPQLLISFTSNRASGVPDRFSGSGSGTYFTLKISRVEAEDVGVYYCMQAVQTPWTFGQGTKVEIK
notes: copies: 2 + 2
B2: NCS.1.1 Fab (Fab, V domains shown)
VH: QVQLQESGPRLVKPSETLSLTCSVSGESISSGGYYWTWIRQHPGKGLEWIGNIFDTGSTDYSPSLKTRLTISIDTSKNQFYLRLNSATAADTAVYYCARVGFSLETDRPYYLGLDVWGQGTTVTVSS
VL: DIVMTQSPLSLPVTPGEPASISCRSSQSLLHSNGYTYLDWYLQKPGQSPQLLISFTSNRASGVPDRFSGSGSGTYFTLKISRVEAEDVGVYYCMQAVQTPWTFGQGTKVEIK
B3: NCS.1.3 mAb (IgG) (antibody, V domains shown)
VH: QVQLQESGPRLVKPSETLSLTCSVSGESISSGGYYWTWIRQHPGKGLEWIGNIFDTGSTDYSPSLKTRLTISIDTSKNQFYLRLTSATAADTAVYYCARVGFSLETDRPYYLGLDVWGQGTTVTVSS
VL: DIVMTQSPLTLPVTPGEPASISCRSSQSLLHSNGYTYLDWYLQKPGQSPQLLIYFASNRASGVPDRFSGSGSGTYFTLKISRVEAEDVGVYYCMQAVQSPWTFGQGTKVEIK
notes: copies: 2 + 2

How the values were obtained:
[1] = molecular target: sNAp of A/Vietnam/1203/2004 (VN04, H5N1) NA (Influenza A virus A/Vietnam/1203/2004 …, UniProt Q6DPL2, stabilised); assay: ELISA; conditions: both partners purified
[2] = molecular target: T1, N1-CA09-sNAp, stabilized neuraminidase protein of A/California/04/2009 (H1N1) (Influenza A virus A/California/04/2009 …, stabilised); assay: cryo-EM structure; conditions: both partners purified
T1 chain: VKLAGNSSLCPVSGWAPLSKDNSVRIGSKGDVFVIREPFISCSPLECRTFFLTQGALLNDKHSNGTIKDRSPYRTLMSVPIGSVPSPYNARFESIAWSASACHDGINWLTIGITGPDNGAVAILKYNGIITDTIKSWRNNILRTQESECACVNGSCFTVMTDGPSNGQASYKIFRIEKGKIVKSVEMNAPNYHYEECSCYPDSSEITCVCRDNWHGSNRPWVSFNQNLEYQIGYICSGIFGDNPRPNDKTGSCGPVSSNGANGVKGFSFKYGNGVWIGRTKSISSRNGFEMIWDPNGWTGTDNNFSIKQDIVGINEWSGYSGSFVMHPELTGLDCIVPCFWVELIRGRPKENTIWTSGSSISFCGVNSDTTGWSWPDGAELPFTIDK

Row | Binder | binding result [1] | stoichiometry N [2] [Fabs per NA tetramer]
1 | B1 | binds | –
2 | B2 | – | 4
3 | B3 | binds | –
